Assay results published in paper PMC6080600 (Nature structural & molecular biology, 2018).

Biological target: the molecule itself
Assay: cryo-EM structure

B1: zebrafish RAG1 (recombination-activating gene 1 protein), residues 271-1031, with N-terminal 6xHis-MBP tag (domain or fragment, UniProt O13033 271-1031, looked up)
chain: RCQRDHLSTKLIPTEVPADLIRAVTCQVCDHLLSDPVQSPCRHLFCRLCIIRYTHALGPNCPTCNQHLNPSHLIKPAKFFLATLSSLPLLCPSEECSDWVRLDSFREHCLNHYREKESQEEQTPSEQNLDGYLPVNKGGRPRQHLLSLTRRAQKHRLRDLKNQVKTFAEKEEGGDVKSVCLTLFLLALRAGNEHKQADELEAMMQGRGFGLHPAVCLAIRVNTFLSCSQYHKMYRTVKATSGRQIFQPLHTLRNAEKELLPGFHQFEWQPALKNVSTSWDVGIIDGLSGWTVSVDDVPADTISRRFRYDVALVSALKDLEEDIMEGLRERALDDSMCTSGFTVVVKESCDGMGDVSEKHGSGPAVPEKAVRFSFTIMSISIRLEGEDDGITIFQEQKPNSELSCRPLCLMFVDESDHETLTAILGPVVAERKAMMESRLIISVGGLLRSFRFFFRGTGYDEKMVREMEGLEASGSTYICTLCDSTRAEASQNMVLHSITRSHDENLERYEIWRKNPFSESADELRDRVKGVSAKPFMETQPTLDALHCDIGNATEFYKIFQDEIGEVYQKPNPSREERRRWRSTLDKQLRKKMKLKPVMRMNGNYARRLMTREAVEAVCELVPSEERREALLKLMDLYLQMKPVWRSTCPSRDCPDQLCQYSYNSQQFADLLSSMFKYRYDGKITNYLHKTLAHVPEIVERDGSIGAWASEGNESGNKLFRRFRKMNARQSKTFELEDILKHHWLYTSKYLQKFMEAHKNS
  stoichiometry N: 2
